In patent US9540424B2, “Serum albumin binding molecules” (BRISTOL-MYERS SQUIBB COMPANY, priority 2010, dated 2017):

B1: His-tagged FGF21: non-fused His-tagged FGF21 (“FGFv1”; SEQ ID NO: 125) used as a comparator (protein)
chain: MHHHHHHPIPDSSPLLQFGGQVRQRYLYTDDAQQTEAHLEIREDGTVGGAADQSPESLLQLKALKPGVIQILGVKTSRFLCQRPDGALYGSLHFDPEACSFRELLLEDGYNVYQSEAHGLPLHLPGNKSPHRDPAPRGPARFLPLPGLPPALPEPPGILAPQPPDVGSSDPLSMVGPSQGRSPSYAS
modifications: His6 tag
B2: SABA1-FGF21v1: SABA1-FGF21 fusion, SEQ ID NO: 132; 293 aa; DNA SEQ ID NO: 184 (protein)
chain: MGVSDVPRDLEVVAATPTSLLISWHSYYEQNSYYRITYGETGGNSPVQEFTVPYSQTTATISGLKPGVDYTITVYAVYGSKYYYPISINYRTEIEKPSQGSGSGSGSGSGSGSPIPDSSPLLQFGGQVRQRYLYTDDAQQTEAHLEIREDGTVGGAADQSPESLLQLKALKPGVIQILGVKTSRFLCQRPDGALYGSLHFDPEACSFRELLLEDGYNVYQSEAHGLPLHLPGNKSPHRDPAPRGPARFLPLPGLPPALPEPPGILAPQPPDVGSSDPLSMVGPSQGRSPSYAS

Tests used:
[1] = tested on: 3T3-L1 adipocytes; assay: pERK assay in 3T3-L1 adipocytes; assay type: cell-based, mouse
Description: 3T3-L1 cells (ATCC # CL-173) are mouse fibroblasts that can be differentiated into mouse adipocytes. Since β-klotho is expressed only in differentiated 3T3-L1 cells, it was necessary to first differentiate them before performing a β-klotho pERK 1/2 assay as described in Example B3.
The cells were grown in DMEM media (Invitrogen #12430-054) supplemented with 10% characterized fetal bovine serum (Hyclone # SH30071.03) and 1X Antibiotic-Antimycotic (Gibco #15240-096). Cells were cultured in a 37° C. incubator with 5% CO2. The sub-culturing procedure was followed as described in ATCC's product information sheet with the exception that TrypLE Express (Gibco #12605) was used instead of the Trypsin-EDTA solution.
Approximately 68 hours before differentiation, 5500 cells per well (in 150 μl media) were seeded into 96 well plates (Falcon #353072); cell numbers could be adjusted according to the time of the seeding and their doubling time, but cells were 100% confluent at the time the differentiation procedure was started. […]
At the ninth to tenth day of differentiation, the growth media was aspirated off the cells and cells were starved with 200 μl of DMEM (Invitrogen #12320-032) with 2% fetal bovine serum overnight. […] The plate was finally read on a PerkinElmer Envision 2103 Multilabel Reader, using standard Alpha Screening settings.

[2] = biological target: HSA (Homo sapiens, UniProt P02768); assay: SPR (Biacore T100) kinetics of FGF21-SABA1 fusions: HSA; assay type: binding; details: flow rate 30 μl/min
Description: (§1) The binding competency and thermodynamic characterization of FGF21-SABA fusion variants to human serum albumin were performed using Isothermal Titration calorimetry on a Microcal VP-ITC instrument (Microcal Inc. Amherst Mass., USA). […] The detailed experimental conditions are described below.
(§2) For the calorimetry assay, the FGF21-SABA variant SABA1-FGF21v1 (SEQ ID NO: 132) was used. […] For the SPR studies, SABA1-FGF21v1 and SABA1-FGF21v3 (SEQ ID NO: 134) were examined.
(§3) Serum albumins were dissolved in PBS buffer (10 mM sodium phosphate, 130 mM sodium chloride, pH 7.1) to a concentration of 10 mg/ml, and subsequently diluted to 8-10 μg/ml in 10 mM sodium acetate pH 5.0 for immobilization. Serum albumins were immobilized on a Series S CMS sensor chip using standard ethyl(dimethylaminopropyl) carbodiimide (EDC)/N-hydroxysuccinimide (NHS) chemistry in HBS-EP+ running buffer at 25° C., following general manufacturer guidelines. Flow cell 1 was activated with EDC/NHS and blocked with ethanolamine. […] Kinetic experiments were performed in PBS buffer containing 0.05% tween-20 (running buffer) at either 25° C. or 37° C. […] These samples were injected across flow cells 1-4 for 300 s, with a 420 s dissociation time, at flow rates of 30 μl/min or 60 μl/min to check for mass transfer limitation. All surfaces were regenerated with 2 pulses of 10 mM glycine pH 2.0 at 30 μl/min for 30 s. Raw sensograms were “double-referenced” by subtracting flow cell 1 data from flow cell 2, 3 or 4 data, and then subtracting a separate buffer cycle from each sensogram. The double-referenced sensogram data was fitted to a 1:1 Langmuir model using Biacore T100 Evaluation software version 2.0.2 to determine the association rate constant (ka), the dissociation rate constant (kd), and the equilibrium dissociation constant (KD).

[3] = biological target: MuSA (Mus musculus, UniProt P07724); assay: SPR (Biacore T100) kinetics of FGF21-SABA1 fusions: MuSA; assay type: binding, murine; design: purchased Sigma A3559; details: flow rate 30 μl/min, up to 1 uM analyte
MuSA, sequence (P07724 25-608): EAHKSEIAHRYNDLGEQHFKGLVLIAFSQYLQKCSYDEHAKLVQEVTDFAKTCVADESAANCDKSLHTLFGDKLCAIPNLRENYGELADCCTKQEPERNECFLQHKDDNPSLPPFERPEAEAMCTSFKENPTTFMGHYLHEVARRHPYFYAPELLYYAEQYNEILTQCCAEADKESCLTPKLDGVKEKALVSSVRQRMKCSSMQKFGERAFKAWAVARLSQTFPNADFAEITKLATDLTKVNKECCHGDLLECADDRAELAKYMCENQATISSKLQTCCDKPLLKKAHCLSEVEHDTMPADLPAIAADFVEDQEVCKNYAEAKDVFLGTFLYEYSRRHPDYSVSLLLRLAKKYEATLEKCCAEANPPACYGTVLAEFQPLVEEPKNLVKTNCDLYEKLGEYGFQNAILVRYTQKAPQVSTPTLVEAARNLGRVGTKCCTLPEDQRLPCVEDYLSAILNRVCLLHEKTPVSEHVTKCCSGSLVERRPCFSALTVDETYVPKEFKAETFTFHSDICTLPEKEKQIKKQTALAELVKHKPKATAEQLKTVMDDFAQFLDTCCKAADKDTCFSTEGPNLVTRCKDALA
Description: as §1, §2, §3

[4] = tested on: diabetic ob/ob mice; assay: Acute and chronic effects of SABA1-FGF21v1 in diabetic ob/ob mice, 3 weeks daily treatment; assay type: in vivo, mouse
Excerpt: Additional acute and chronic effects of SABA1-FGF21v1 were examined in the diabetic ob/ob mice. At study termination after 3 weeks of daily treatment, reductions in plasma glucose, insulin and total cholesterol were observed. Plasma alanine aminotransferase was reduced and β-hydroxybutyrate levels were elevated.

[5] = tested on: diabetic ob/ob mice; assay: HbA1c in diabetic ob/ob mice after 14 days of SABA1-FGF21v1 premixed with HSA; assay type: in vivo, mouse; details: for plasma levels: […] hours after the last dose
Description: HbA1c was measured in plasma samples 24 hours after the last dose (see FIG. 19).
SABA1-FGF21v1 plasma levels at the 0.01, 0.1 and 1 mg/kg doses were 3.85, 2.28 and 28.73 ng/ml respectively, 24 hours after the last dose.

[6] = after 3 weeks of daily treatment

Row | Molecule | EC50 [1] | Fold Activation [1] | ka ([2]; 25° C.) | kd ([2]; 25° C.) | ka ([2]; 37° C.) | kd ([2]; 37° C.) | binding to MuSA ([3]; 25° C.) | binding to MuSA ([3]; 37° C.) | Plasma alanine aminotransferase [4, 6] | β-hydroxybutyrate levels [4, 6] | oral glucose tolerance test ([4]; mouse, in vivo, po) | plasma glucose, insulin and total cholesterol ([4]; study termination after 3 weeks of daily treatment) | plasma levels ([5]; 0.01 mg/kg dose) | decrease in HbA1c compared to baseline ([5]; 0.01 mg/kg with HSA 6 mg/kg, s.c. q.d. 14 days) | plasma levels ([5]; 0.1 mg/kg dose) | decrease in HbA1c compared to baseline ([5]; 0.1 mg/kg with HSA 6 mg/kg, s.c. q.d. 14 days, not statistically significant) | plasma levels ([5]; 1 mg/kg dose) | decrease in HbA1c with respect to baseline ([5]; 1 mg/kg with HSA 6 mg/kg, s.c. q.d. 14 days) | vehicle subtracted decrease in HbA1c ([5]; 1 mg/kg with HSA 6 mg/kg, s.c. q.d. 14 days, statistically significant)
1 | B1 | 4 ± 2 nM | 2.1 ± 0.2 |  |  |  |  |  |  |  |  |  |  |  |  |  |  |  |  | 
2 | B2 |  |  | 3380 M⁻¹ s⁻¹ | 0.000333 s⁻¹ | 5960 M⁻¹ s⁻¹ | 0.00111 s⁻¹ | no binding observed up | no binding observed up | reduced | elevated | increased capacity to handle a glucose load | reductions | 3.85 ng/mL | no decrease | 2.28 ng/mL | 0.39% | 28.73 ng/mL | 0.9% | 0.94%
